Values of other authors in publication PMC7990104.
pKd: −log10 of the molar value. Read-outs that look alike come from different tables or passages of the source.

What was measured:
[1] = target: PYL3 (Arabidopsis thaliana) (UniProt Q9SSM7)
[2] = target: PYL3 (Arabidopsis thaliana) (UniProt Q9SSM7); remark: listed apart in the source

Substance: PYL3 (from UniProt Q9SSM7)
- pKd [1]: 5.11
- pKd [2]: 4.28
